This assay deals with T1, Rat TRPV2 (transient receptor potential vanilloid 2 channel), full length, C-terminal 1D4 tag (rat), Q9WUD2.
T1 chain: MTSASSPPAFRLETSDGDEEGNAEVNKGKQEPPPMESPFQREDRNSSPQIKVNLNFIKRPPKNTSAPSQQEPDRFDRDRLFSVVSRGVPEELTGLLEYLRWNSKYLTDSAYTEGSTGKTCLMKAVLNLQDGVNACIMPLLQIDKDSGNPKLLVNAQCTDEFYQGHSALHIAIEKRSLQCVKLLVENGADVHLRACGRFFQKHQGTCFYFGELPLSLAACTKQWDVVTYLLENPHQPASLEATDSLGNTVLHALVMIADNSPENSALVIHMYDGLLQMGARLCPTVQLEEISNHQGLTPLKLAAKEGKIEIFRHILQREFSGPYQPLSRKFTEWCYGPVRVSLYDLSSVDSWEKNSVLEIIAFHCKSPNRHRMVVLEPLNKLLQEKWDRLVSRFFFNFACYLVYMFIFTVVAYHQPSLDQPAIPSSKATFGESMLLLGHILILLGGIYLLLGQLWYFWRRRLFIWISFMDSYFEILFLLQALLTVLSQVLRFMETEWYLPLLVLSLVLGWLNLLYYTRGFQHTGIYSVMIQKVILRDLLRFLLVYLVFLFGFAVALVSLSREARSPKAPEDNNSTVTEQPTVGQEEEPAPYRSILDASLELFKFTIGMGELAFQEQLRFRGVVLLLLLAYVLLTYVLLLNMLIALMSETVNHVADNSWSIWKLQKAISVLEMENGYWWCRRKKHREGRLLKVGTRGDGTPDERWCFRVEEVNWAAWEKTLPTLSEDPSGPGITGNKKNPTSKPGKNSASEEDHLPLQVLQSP
Nature of the assay: high-speed atomic force microscopy (HS-AFM); TRPV2 reconstituted into soy polar lipid membranes (LPR 0.5-0.7) on mica; imaging buffer 20 mM Hepes pH 8.0, 150 mM NaCl; contacts between neighbouring tetramers scored as connected or not in binarised frames; dwell times fitted with a single exponential; thick continuous connections excluded. Particulars: remark: other sources report otherwise.

B1: Rat TRPV2 (transient receptor potential vanilloid 2 channel), full length, C-terminal 1D4 tag, Q9WUD2 1-761 (natural protein)
chain: T1 chain
Regarding B1, the connection lifetime time constant amounted to 2.2 s.

These data come from publication PMC10516966.
